Experimental data from the supplement of paper PMC7877785.
± gives the uncertainty stated by the source.

Assay: self-splicing fitness, log relative to wild type (ln ratio); higher = more splicing; Tetrahymena group I intron in knt gene, E. coli kanamycin selection, DiMSum; sequences stand for … in CUCUCU…GGAGGGAAAAGUUAUCAGGCAUGCACCUGGUAGCUAGUCUUUAAACCAAUAGAUUGCAUCGGUUUAAAAGGCAAGACCGUCAAAUUGCGGGAAAGGGGUCAACAGCCGUUCAGUACCAAGUCUCAGGGGAAACUUUGAGAUGGCCUUGCAAAGGGUAUGGUAAUAAGCUGACGGACAUGGUCCUAACCACGCAGCCAAGUCCUAAGUCAACAGAUCUUCUGUUGAUAUGGAUGCAGUUCACAGACUAAAUGUCGGUCGGGGAAGAUGUAUUCUUCUCAUAAGAUAUAGUCGGACCUCUCCUUAAUGGGAGCUAGCGGAUGAAGUGAUGCAACACUGGAGCCGCUGGGAACUAAUUUGUAUGCGAAAGUAUAUUGAUUAGUUUUGGAGUACUCGUGGUCG
Summary of the method: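 Pooled colonies went to amplicon sequencing on an Illumina HiSeq 2500 after six replicate transformations. The plates were LB agar with 100 μg/mL carbenicillin, 50 μM IPTG and 0.2% rhamnose, with or without 25 μg/mL kanamycin, incubated overnight at 37°C or 30°C. The E. coli BL21(DE3) library had all eight P1ex-region intron nucleotides randomised, the intron placed in the knt kanamycin-resistance gene on pET-22b(+). DiMSum fitness is the error-weighted combination of replicate fold changes, kanamycin against none, normalised to wild type.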

| Sequence | self-splicing fitness (ln) (30 °C) | self-splicing fitness (ln) (37 °C) |
| --- | --- | --- |
| CAUGAGCAAUAUUACGCUGG | -3.36 ± 0.17 | -2.58 ± 0.18 |
| UGUAAGCAAUAUUACGCCAA | -2.77 ± 0.26 | -1.34 ± 0.2 |
| GUAUAGCAAUAUUACGUUAU | -3.09 ± 0.36 | -1.99 ± 0.21 |
| GAAGAGCAAUAUUACGUUGU | -3.56 ± 0.28 | -2.83 ± 0.24 |
| UCUUAGCAAUAUUACGUCUU | -3.21 ± 0.32 | -3 ± 0.27 |
| CUUCAGCAAUAUUACGCGAG | -3.15 ± 0.2 | -1.91 ± 0.2 |
| CCAUAGCAAUAUUACGAAAC | -4.09 ± 0.35 | -2 ± 0.29 |
| GUACAGCAAUAUUACGAAAG | -3.47 ± 0.1 | -1.04 ± 0.092 |
| UGGGAGCAAUAUUACGAUCC | -1.41 ± 0.39 |  |
| CUCUAGCAAUAUUACGUUUG | -3.43 ± 0.13 | -2.27 ± 0.14 |
| UGAAAGCAAUAUUACGUGCC | -0.125 ± 0.12 | -0.826 ± 0.15 |
| UUGCAGCAAUAUUACGCCAG | -0.879 ± 0.13 | 0.0127 ± 0.2 |
| UUUGAGCAAUAUUACGUGCG |  | -1.29 ± 0.25 |
| AGCGAGCAAUAUUACGUGGA | -2.95 ± 0.22 | -2.81 ± 0.16 |
| UCUUAGCAAUAUUACGCUAU | -4.16 ± 0.25 | -2.03 ± 0.18 |
| CUCCAGCAAUAUUACGUCCU | -3.42 ± 0.28 | -3.01 ± 0.38 |
| CGAAAGCAAUAUUACGCCCG | -1.9 ± 0.18 | -0.623 ± 0.21 |
| CAGUAGCAAUAUUACGCUAU | -3.57 ± 0.23 | -3.27 ± 0.32 |
| CAAGAGCAAUAUUACGCUCC | -2.23 ± 0.44 |  |
| CCAUAGCAAUAUUACGACCG | -0.0743 ± 0.15 | -0.0737 ± 0.22 |
| AUCGAGCAAUAUUACGACCA | -2.06 ± 0.22 | -0.741 ± 0.28 |
| UCAUAGCAAUAUUACGUCGU | -3.88 ± 0.39 | -1.79 ± 0.38 |

| Sequence | self-splicing fitness (ln) (30 °C) | self-splicing fitness (ln) (37 °C) |
| --- | --- | --- |
| ACGUAGCAAUAUUACGGCUG | -3.21 ± 0.28 | -1.83 ± 0.25 |
| AAUUAGCAAUAUUACGUUGU | -3.79 ± 0.15 | -1.72 ± 0.15 |
| CAAAAGCAAUAUUACGUCUC | -3.38 ± 0.23 | -2.15 ± 0.2 |
| UCAAAGCAAUAUUACGAGAU | -4.03 ± 0.33 | -1.91 ± 0.2 |
| CAGCAGCAAUAUUACGAACU | -2.68 ± 0.16 | -2.11 ± 0.14 |
| ACGGAGCAAUAUUACGCGGG | -2.3 ± 0.18 | -0.332 ± 0.15 |
| CGGUAGCAAUAUUACGUUGC | -2.1 ± 0.14 | -2.85 ± 0.33 |
| AGCCAGCAAUAUUACGGUGA | -1.82 ± 0.091 | -1.2 ± 0.089 |
| AAGCAGCAAUAUUACGAAUA | -2.44 ± 0.16 | -1.21 ± 0.12 |
| CGGUAGCAAUAUUACGAGUC | -2.07 ± 0.43 |  |
| CAUCAGCAAUAUUACGGUGA | -1.63 ± 0.12 | -1.4 ± 0.12 |
| ACUUAGCAAUAUUACGCGUA | -1.82 ± 0.2 | -1.18 ± 0.2 |
| AGACAGCAAUAUUACGCGCC | -0.399 ± 0.14 | -0.637 ± 0.12 |
| GAUUAGCAAUAUUACGAUAU | -1.19 ± 0.11 | -0.869 ± 0.13 |
| UAUAAGCAAUAUUACGCUCU | -0.357 ± 0.11 | 0.0533 ± 0.16 |
| CUGAAGCAAUAUUACGUCUG | 0.302 ± 0.069 | 0.352 ± 0.08 |
| GUAGAGCAAUAUUACGUAAA | -4.18 ± 0.36 | -1.4 ± 0.27 |
| CAGCAGCAAUAUUACGGAAU | -4.16 ± 0.24 | -1.95 ± 0.16 |
| GGUUAGCAAUAUUACGCGGG | -3.71 ± 0.22 | -1.23 ± 0.12 |
| GUCCAGCAAUAUUACGAUGC | -0.013 ± 0.081 | 0.389 ± 0.1 |
| UUGCAGCAAUAUUACGACCG | -0.719 ± 0.065 | -0.144 ± 0.093 |
